In patent US10973880B2, “Compositions and methods for treating pulmonary hypertension” (Acceleron Pharma Inc., priority 2016, dated 2021):

How the values were obtained:
[1] = biological target: T1, GDF11 (Homo sapiens, UniProt O95390); test: A-204 reporter gene assay, pGL3(CAGA)12 luciferase; type: cell-based; conditions: Example 13
T1 sequence (O95390 299-407): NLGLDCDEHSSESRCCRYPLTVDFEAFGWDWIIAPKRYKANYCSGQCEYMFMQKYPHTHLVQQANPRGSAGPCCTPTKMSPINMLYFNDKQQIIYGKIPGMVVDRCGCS
Excerpt: (§1) Day 1: Split A-204 cells into 48-well plate. […]
(§2) In addition, an A-204 Reporter Gene Assay was used to evaluate the effects of ALK4-Fc:ActRIIB-Fc heterodimer and ActRIIB-Fc:ActRIIB-Fc homodimer on signaling by activin A, activin B, GDF11, GDF8, BMP10, and BMP9. Cell line: Human Rhabdomyosarcoma (derived from muscle). Reporter vector: pGL3(CAGA)12 (as described in Dennler et al, 1998, EMBO 17: 3091-3100). The CAGA12 motif is present in TGFβ responsive genes (PAI-1 gene), so this vector is of general use for factors signaling through Smad2 and 3. An exemplary A-204 Reporter Gene Assay is outlined below. • Day 1: Split A-204 cells into 48-well plate. • Day 2: A-204 cells transfected with 10 ug pGL3(CAGA)12 or pGL3(CAGA)12(10 ug)+pRLCMV (1 ug) and Fugene. • Day 3: Add factors (diluted into medium+0.1% BSA). Inhibitors need to be pre-incubated with Factors for about one hr before adding to cells. About six hrs later, cells are rinsed with PBS and then lysed.
(§3) Following the above steps, a Luciferase assay was performed.

[2] = test system: rat model of pulmonary arterial hypertension (PAH), monocrotaline (MCT) induced; test: monocrotaline rat model of pulmonary arterial hypertension; type: in vivo, Sprague Dawley rats
Experimental: The effects of an ActRIIA-mFc fusion protein (ActRIIA-mFc homodimer as described in Example 1), an ALK4-Fc-ActRIIB-Fc heterodimer (as described in Examples 12 and 13), and sildenafil (a phosphodiesterase-5 inhibitor approved for the treatment of PAH) were examined in a rat model of pulmonary arterial hypertension (PAH). In this model, Sprague Dawley rats received a […] injection of monocrotaline (MCT) to induce PAH 24 hours prior to start of therapy.
Rats were separated into different treatment groups (10 mice per group): 1) treatment with MCT (60 mg/kg administered i.p. as a single dose at day 1 of study) and Tris buffered saline (i.p. as 1 ml/kg, every three days) (vehicle treatment group), 2) treatment with an ActRIIA-mFc polypeptide (10 mg/kg administered i.p. every three days) and MCT (60 mg/kg administered i.p. as a single dose at day 1 of study), 3) treatment with an ALK4-Fc:ActRIIB-Fc heterodimer (10 mg/kg administered i.p. every three days) and MCT (60 mg/kg administered i.p. as a single dose at day 1 of study), 4) treatment with sildenafil (30 mg/kg administered orally twice daily) and MCT (60 mg/kg administered i.p. as a single dose at day 1 of study), and 5) control rats (Tris buffered saline administered i.p. as 1 ml/kg, every three days). Rats were treated for 28 days. Body weights were recorded prior to first dose on Day 1 and then weekly throughout the study.
On day 28, rats were anesthetized by an intraperitoneal injection of ketamine/xylazine (80/10 mg/kg). An incision was made in the neck, and a jugular vein was isolated and ligated anteriorly. A fluid-filled pressure catheter was introduced into the right jugular vein to measure pulmonary artery pressure (PAP). Another incision was made in the inguinal region, and femoral artery was isolated and ligated anteriorly. A Millar pressure catheter was introduced into a femoral artery to measure systolic arterial pressure, diastolic pressure, and heart rate. Mean arterial pressure and right PAP were monitored using the Notocord HEM (Croissy sur Seine, Frnace) v3.5 data capture system for approximately 5-10 minutes until stable measurements were obtained. During the measurements, rats were maintained at approximately 37° C. on a heating pad and body temperature was monitored throughout the procedure with a rectal temperature probe. At the conclusion of the procedure, rats were euthanized, and the hearts and lungs were removed. The entire heart was weighed. Next, the atria were removed and the left ventricle with septum (LV+S) was separated from the right ventricle (RV). The ventricles were weighed separately. Hypertrophy was assessed, in part, by calculating RV/LV+S. The lungs were also weighed.
Similar trends were observed on vessel muscularity based on histopathologic scoring. After staining tissue samples to detect αSMA/elastin, 100 pulmonary arterioles, between 10 μm and 50 μm in size, per animal were categorized as non-muscularized, partially muscularized, or completely muscularized. Pulmonary arterioles from vehicle treated rats were determined to be 62.3% completely muscularized, 36.4% partially muscularized, and 1.4% non-muscularized. […] Histopathological scoring of smooth muscle hypertrophy of pulmonary arterioles were also recorded as follows: 0 (normal), 1 (minimal), 2 (mild), 3 (moderate), or 4 (marked).

[3] = biological target: T2, GDF8 (Homo sapiens, UniProt O14793); test: A-204 reporter gene assay, pGL3(CAGA)12 luciferase; type: cell-based; parameters: host or cells: exogenous factor added to A-204 cells (human rhabdomyosarcoma); conditions: Example 13
T2 sequence (O14793 267-375): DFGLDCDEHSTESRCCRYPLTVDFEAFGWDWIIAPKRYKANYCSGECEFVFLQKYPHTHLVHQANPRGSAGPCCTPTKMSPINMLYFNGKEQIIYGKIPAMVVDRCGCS
Excerpt: as §1, §2, §3

[4] = biological target: T3, BMP10 (Homo sapiens, UniProt O95393); test: A-204 reporter gene assay, pGL3(CAGA)12 luciferase; type: cell-based; parameters: host or cells: exogenous factor added to A-204 cells (human rhabdomyosarcoma); conditions: Example 13
T3 sequence (O95393 317-424): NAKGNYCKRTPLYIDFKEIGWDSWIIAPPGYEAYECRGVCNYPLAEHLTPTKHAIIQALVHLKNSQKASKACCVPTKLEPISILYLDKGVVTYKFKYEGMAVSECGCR
Excerpt: as §2, §3

[5] = biological target: T4, BMP9 (Homo sapiens, UniProt Q9UK05); test: A-204 reporter gene assay, pGL3(CAGA)12 luciferase; type: cell-based; parameters: host or cells: exogenous factor added to A-204 cells (human rhabdomyosarcoma); conditions: Example 13
T4 sequence (Q9UK05 320-429): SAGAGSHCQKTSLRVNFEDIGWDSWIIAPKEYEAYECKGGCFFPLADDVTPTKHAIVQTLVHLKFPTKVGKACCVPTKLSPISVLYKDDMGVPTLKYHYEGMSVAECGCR
Excerpt: as §2, §3

[6] = biological target: T5, activin B (Homo sapiens, UniProt P09529); test: A-204 reporter gene assay, pGL3(CAGA)12 luciferase; type: cell-based; parameters: host or cells: exogenous factor added to A-204 cells (human rhabdomyosarcoma); conditions: Example 13
T5 sequence (P09529 293-407): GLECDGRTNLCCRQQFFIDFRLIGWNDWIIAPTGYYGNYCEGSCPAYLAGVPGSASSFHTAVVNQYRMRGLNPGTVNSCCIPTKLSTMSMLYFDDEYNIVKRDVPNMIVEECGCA
Excerpt: as §2, §3

B1: ALK4-Fc:ActRIIB-Fc heterodimer: heteromeric complex of extracellular domains of human ActRIIB and human ALK4, each separately fused to an Fc domain with a linker (protein)
chain 1: SGPRGVQALLCACTSCLQANYTCETDGACMVSIFNLDGMEHHVRTCIPKVELVPAGKPFYCLSSEDLRNTHCCYTDYCNRIDLRVPSGHLKEPEHPSMWGPVE
chain 2: GRGEAETRECIYYNANWELERTNQSGLERCEGEQDKRLHCYASWRNSSGTIELVKKGCWLDDFNCYDRQECVATEENPQVYFCCCEGNFCNERFTHLPEAGGPEVTYEPPPTAPT
modifications: left off: a dimerising Fc or GST; small tags and cut ends
notes: heteromeric complex of extracellular domains of human ActRIIB and human ALK4, each separately fused to an Fc domain with a linker
[1]
  inhibition of GDF11 signaling: potent inhibitors
[2]; 28 days, compared to monocrotaline treated rats, proteins 10 mg/kg i.p. every three days, sildenafil 30 mg/kg orally twice daily
  improvement in body weight: +5.1%
[2]; day 28, RV/LV+S, compared to monocrotaline treated rats
  decrease of right heart hypertrophy: 39.6%
[2]; day 28, compared to monocrotaline treated rats
  decrease of lung weight: 19.0%
[2]; day 28, compared to monocrotaline treated rats, same dosing
  reduction of elevated PAP: 44.6%
[2]; monocrotaline-induced model
  effect in reducing vascular muscularization compared with sildenafil: greater effect
[3]
  inhibition of GDF8 signaling: potent inhibitors
[4]
  inhibition of BMP10 signaling pathway compared to ActRIIB-Fc:ActRIIB-Fc homodimer: significantly reduced
[5]
  inhibition of BMP9 signaling pathway compared to ActRIIB-Fc:ActRIIB-Fc homodimer: significantly reduced
[6]
  inhibition of activin B signaling: potent inhibitors
